Test results as given in paper PMC5640987 (Nature, 2017).

Tests used:
Tor1 = Tor1 (budding yeast (endogenous), UniProt P35169 1-2470); test: cryo-EM structure
cryo-EM structure = molecular target: the molecule itself; test: cryo-EM structure

Sequence of Tor1 (P35169 whole entry): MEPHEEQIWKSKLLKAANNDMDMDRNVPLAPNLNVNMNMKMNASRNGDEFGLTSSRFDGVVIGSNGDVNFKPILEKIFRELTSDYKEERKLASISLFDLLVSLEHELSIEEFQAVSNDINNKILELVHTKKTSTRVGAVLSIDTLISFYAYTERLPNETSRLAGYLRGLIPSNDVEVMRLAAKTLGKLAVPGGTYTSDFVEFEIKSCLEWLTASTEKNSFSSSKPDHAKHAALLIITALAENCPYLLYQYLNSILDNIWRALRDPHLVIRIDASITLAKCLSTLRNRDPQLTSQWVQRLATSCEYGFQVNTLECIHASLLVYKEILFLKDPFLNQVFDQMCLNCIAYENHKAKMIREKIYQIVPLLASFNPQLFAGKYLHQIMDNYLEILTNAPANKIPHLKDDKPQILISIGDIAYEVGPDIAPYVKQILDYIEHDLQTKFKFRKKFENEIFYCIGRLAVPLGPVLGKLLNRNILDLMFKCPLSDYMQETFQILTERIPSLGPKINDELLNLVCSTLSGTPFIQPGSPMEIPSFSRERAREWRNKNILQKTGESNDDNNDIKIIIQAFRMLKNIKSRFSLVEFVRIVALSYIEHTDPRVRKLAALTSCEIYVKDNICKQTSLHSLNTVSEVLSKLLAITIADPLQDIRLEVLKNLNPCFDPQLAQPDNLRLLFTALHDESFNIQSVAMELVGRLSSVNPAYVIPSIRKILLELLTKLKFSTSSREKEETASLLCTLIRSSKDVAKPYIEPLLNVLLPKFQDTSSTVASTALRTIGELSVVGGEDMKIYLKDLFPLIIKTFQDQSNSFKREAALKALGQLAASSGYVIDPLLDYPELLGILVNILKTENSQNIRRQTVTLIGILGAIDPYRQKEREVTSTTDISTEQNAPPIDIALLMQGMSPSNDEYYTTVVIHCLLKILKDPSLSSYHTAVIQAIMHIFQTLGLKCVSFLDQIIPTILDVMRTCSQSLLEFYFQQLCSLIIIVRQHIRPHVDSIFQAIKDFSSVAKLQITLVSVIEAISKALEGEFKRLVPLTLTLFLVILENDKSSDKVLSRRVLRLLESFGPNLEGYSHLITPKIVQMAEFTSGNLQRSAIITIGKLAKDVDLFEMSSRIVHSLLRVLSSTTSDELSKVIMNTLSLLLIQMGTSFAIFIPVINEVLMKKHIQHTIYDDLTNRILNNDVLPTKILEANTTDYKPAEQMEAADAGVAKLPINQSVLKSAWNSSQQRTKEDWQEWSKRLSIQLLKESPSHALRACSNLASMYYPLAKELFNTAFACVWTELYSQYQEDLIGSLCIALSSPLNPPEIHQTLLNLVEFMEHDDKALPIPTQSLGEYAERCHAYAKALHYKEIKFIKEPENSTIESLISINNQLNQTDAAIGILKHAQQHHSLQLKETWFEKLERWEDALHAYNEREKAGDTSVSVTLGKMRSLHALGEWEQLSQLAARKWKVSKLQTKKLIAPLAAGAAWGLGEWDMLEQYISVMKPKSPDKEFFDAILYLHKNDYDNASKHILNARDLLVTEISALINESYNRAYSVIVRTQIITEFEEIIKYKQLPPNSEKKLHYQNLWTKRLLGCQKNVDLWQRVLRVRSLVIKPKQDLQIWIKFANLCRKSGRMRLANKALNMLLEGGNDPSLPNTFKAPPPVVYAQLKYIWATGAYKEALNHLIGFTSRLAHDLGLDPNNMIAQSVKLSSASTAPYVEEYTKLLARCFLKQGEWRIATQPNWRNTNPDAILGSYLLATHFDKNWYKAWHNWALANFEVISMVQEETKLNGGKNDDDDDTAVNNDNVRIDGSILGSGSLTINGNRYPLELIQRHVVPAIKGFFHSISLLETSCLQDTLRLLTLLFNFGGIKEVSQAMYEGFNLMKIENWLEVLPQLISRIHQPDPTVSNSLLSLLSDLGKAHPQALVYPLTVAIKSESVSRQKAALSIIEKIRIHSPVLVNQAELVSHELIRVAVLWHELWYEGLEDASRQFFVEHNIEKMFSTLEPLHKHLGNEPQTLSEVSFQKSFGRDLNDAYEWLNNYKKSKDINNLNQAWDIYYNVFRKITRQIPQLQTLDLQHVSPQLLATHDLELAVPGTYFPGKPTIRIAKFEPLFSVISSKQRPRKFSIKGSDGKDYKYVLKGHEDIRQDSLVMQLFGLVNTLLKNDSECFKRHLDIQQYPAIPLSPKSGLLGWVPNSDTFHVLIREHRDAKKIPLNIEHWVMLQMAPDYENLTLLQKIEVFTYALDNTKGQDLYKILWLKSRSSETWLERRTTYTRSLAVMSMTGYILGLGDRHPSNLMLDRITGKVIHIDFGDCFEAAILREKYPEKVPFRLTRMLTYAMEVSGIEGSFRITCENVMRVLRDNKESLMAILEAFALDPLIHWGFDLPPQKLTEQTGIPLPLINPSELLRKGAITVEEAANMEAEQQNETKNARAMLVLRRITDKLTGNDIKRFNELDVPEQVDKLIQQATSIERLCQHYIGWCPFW

B1: Kog1 in the purified TORC1 helix (natural protein)
chain: MPEIYGPQPLKPLNTVMRHGFEEQYQSDQLLQSLANDFIFYFDDKRHKTNGNPIPEEDKQRDVNRYYQPITDWKIMKDRQKTVSAALLLCLNLGVDPPDVMKTHPCARVEAWVDPLNFQDSKKAIEQIGKNLQAQYETLSLRTRYKQSLDPCVEDVKRFCNSLRRTSKEDRILFHYNGHGVPKPTKSGEIWVFNRGYTQYIPVSLYDLQTWLGAPCIFVYDCNSAENILINFQKFVQKRIKDDEEGNHDVAAPSPTSAYQDCFQLASCTSDELLLMSPELPADLFSCCLTCPIEISIRIFLMQSPLKDSKYKIFFENSTSNQPFGDSKNSFKSKIPNVNIPGMLSDRRTPLGELNWIFTAITDTIAWTSLPRPLFKKLFRHDLMIAALFRNFLLAKRIMPWYNCHPVSDPELPDSITTHPMWKSWDLAMDEVLTKIVIDLKNAPPATALESQMILQQQETLQNGGSSKSNAQDTKAGSIQTQSRFAVANLSTMSLVNNPALQSRKSISLQSSQQQLQQQQQQQQQFTGFFEQNLTAFELWLKYASNVRHPPEQLPIVLQVLLSQVHRIRALVLLSRFLDLGPWAVYLSLSIGIFPYVLKLLQSPAPELKPILVFIWARIMSIDYKNTQSELIKEKGYMYFVTVLVPDWGVNGMSATNGSAMINSGNPLTMTASQNINGPSSRYYERQQGNRTSNLGHNNLPFYHSNDTTDEQKAMAVFVLASFVRNFPLGQKNCFSLELVNKLCFYIDNSEIPLLRQWCVILLGLLFADNPLNRFVCMNTGAVEILLKSLKDPVPEVRTASIFALKHFISGFQDAEVILRLQQEFEEQYQQLHSQLQHLQNQSHLQQQQSQQQQQHLEQQQMKIEKQIRHCQVMQNQLEVIDLRKLKRQEIGNLISILPLINDGSSLVRKELVVYFSHIVSRYSNFFIVVVFNDLLEEIKLLEKSDINTRNTSDKYSVSQGSIFYTVWKSLLILAEDPFLENKELSKQVIDYILLELSAHKELGGPFAVMEKFLLKRSSKAHQTGKFGFNSSQVQFVKSSLRSFSPNERVDNNAFKKEQQQHDPKISHPMRTSLAKLFQSLGFSESNSDSDTQSSNTSMKSHTSKKGPSGLYLLNGNNNIYPTAETPRFRKHTEPLQLPLNSSFLDYSREYFQEPQMKKQEADEPGSVEYNARLWRRNRNETIIQETQGEKKLSIYGNWSKKLISLNNKSQPKLMKFAQFEDQLITADDRSTITVFDWEKGKTLSKFSNGTPFGTKVTDLKLINEDDSALLLTGSSDGVIKIYRDYQDVDTFKIVSAWRGLTDMLLTPRSTGLLTEWLQIRGSLLTTGDVKVIRVWDAHTETVEVDIPAKTSSLITSLTADQLAGNIFVAGFADGSLRVYDRRLDPRDSMIRRWRAGNDKQGVWINNVHLQRGGYRELVSGATNGVVELWDIRSEDPVESFVDQNVTSQYGSQQKPTTMTCMQVHEHAPIIATGTKQIKIWTTSGDLLNSFKNSHNNGVTSTLAATGIPKSLSYSSTSDAFLSSMAFHPHRMMIAATNSHDSIVNIYKCEDERIDYF
Tor1
  binding result: binds
cryo-EM structure
  binding result: binds
